Results: paper PMC10700143

Legend:
[1] = molecular target: HKU1-A spike protein ectodomain (strain Caen1), trimeric, furin cleavage site mutated, with GCN4 trimerization motif (human coronavirus HKU1 (serotype A, strain Caen1)); experiment: cryo-EM structure; 3 µM wild-type or W89A spike trimer with 300 µM 9-O-acetylated disialoside, incubated at room temperature for about 10 min before vitrification; single-particle analysis
[2] = molecular target: HKU1-A spike protein ectodomain (strain Caen1), trimeric, furin cleavage site mutated, with GCN4 trimerization motif (human coronavirus HKU1 (serotype A, strain Caen1)); experiment: cryo-EM structure; apo: 4.3 µM HKU1 spike trimer without ligand, applied to grids at 4 °C; single-particle analysis, C3 symmetry imposed
[3] = molecular target: W89A mutant HKU1-A spike protein ectodomain (human coronavirus HKU1 (serotype A)); experiment: cryo-EM structure; 3 µM wild-type or W89A spike trimer with 300 µM 9-O-acetylated disialoside, incubated at room temperature for about 10 min before vitrification; single-particle analysis

| Substance | stoichiometry N [1] | stoichiometry N [2] | stoichiometry N [3] |
| --- | --- | --- | --- |
| HKU1-A spike protein ectodomain (strain Caen1), trimeric, furin cleavage site mutated, with GCN4 trimerization motif (domain or fragment) | 3 | 3 |  |
| W89A mutant HKU1-A spike protein ectodomain (domain or fragment) |  |  | 3 |
